Experiments:
[1] = biological target: T1, Ssh1-CPLV (S. cerevisiae); assay: two-hybrid; split-ubiquitin, liquid beta-galactosidase assay (ONPG) on cell lysates, 30°C for 180 min, mean of 6 samples
T1 sequence (P38353 whole entry, looked up): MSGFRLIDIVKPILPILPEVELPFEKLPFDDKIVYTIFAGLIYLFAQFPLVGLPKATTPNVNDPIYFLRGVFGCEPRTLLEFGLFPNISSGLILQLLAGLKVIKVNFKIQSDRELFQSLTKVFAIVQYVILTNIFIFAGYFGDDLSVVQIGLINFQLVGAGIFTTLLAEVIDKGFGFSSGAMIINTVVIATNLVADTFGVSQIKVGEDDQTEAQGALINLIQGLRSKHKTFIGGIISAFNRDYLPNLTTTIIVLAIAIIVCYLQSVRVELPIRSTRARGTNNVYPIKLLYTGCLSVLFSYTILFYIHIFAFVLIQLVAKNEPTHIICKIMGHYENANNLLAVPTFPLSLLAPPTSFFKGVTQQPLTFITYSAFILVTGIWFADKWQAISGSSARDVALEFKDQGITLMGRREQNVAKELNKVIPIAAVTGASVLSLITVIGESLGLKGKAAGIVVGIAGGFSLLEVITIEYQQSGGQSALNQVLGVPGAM

[2] = biological target: T2, Sec61-CPLV (S. cerevisiae); assay: as above
T2 sequence (P32915 whole entry, looked up): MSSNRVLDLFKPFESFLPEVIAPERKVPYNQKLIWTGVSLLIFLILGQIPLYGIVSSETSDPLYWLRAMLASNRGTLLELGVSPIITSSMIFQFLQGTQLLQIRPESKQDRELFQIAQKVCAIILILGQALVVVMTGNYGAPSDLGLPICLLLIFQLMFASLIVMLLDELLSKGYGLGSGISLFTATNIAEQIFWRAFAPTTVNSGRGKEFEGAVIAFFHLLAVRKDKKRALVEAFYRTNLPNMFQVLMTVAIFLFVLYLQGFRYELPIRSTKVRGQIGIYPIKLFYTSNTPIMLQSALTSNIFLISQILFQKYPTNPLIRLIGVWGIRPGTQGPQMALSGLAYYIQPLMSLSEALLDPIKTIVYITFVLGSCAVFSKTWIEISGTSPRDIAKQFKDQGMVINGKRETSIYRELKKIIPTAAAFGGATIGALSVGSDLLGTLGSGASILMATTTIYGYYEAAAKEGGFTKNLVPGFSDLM

[3] = biological target: T1, Ssh1-CPLV (S. cerevisiae); assay: split reporter (BiFC, NanoBiT); split-ubiquitin, cleavage of PLV from the bait read by quantitative immunoblot of cell lysates with anti-PLV and 125I-Protein A; ratio of cleaved PLV to Arf1p
[4] = biological target: T2, Sec61-CPLV (S. cerevisiae); assay: as above

B1: Nub-Sbh1p (natural protein)
chain: MSSPTPPGGQRTLQKRKQGSSQKVAASAPKKNTNSNNSILKIYSDEATGLRVDPLVVLFLAVGFIFSVVALHVISKVAGKLF
B1 showed a beta-galactosidase units [1] of 0.43 U, a beta-galactosidase units [2] of 9.8 U and a cleaved PLV relative to Arf1p (arbitrary units) [3] of 7.1. For the same binder, the cleaved PLV relative to Arf1p (arbitrary units) [4] was 18.

B2: Nub-Sbh2p (natural protein)
chain: MAASVPPGGQRILQKRRQAQSIKEKQAKQTPTSTRQAGYGGSSSSILKLYTDEANGFRVDSLVVLFLSVGFIFSVIALHLLTKFTHII
With B2 the beta-galactosidase units [1] was 0.45 U, the beta-galactosidase units [2] was 0.28 U and the cleaved PLV relative to Arf1p (arbitrary units) [3] was 7.2. It also gave a cleaved PLV relative to Arf1p (arbitrary units) [4] of 9.6.

B3: Nub-Sss1p (natural protein)
chain: MARASEKGEEKKQSNNQVEKLVEAPVEFVREGTQFLAKCKKPDLKEYTKIVKAVGIGFIAVGIIGYAIKLIHIPIRYVIV
In the case of B3, the beta-galactosidase units [1] is reported as 0.55 U, the beta-galactosidase units [2] is reported as 6 U and the cleaved PLV relative to Arf1p (arbitrary units) [3] is reported as 7.1. For the same binder, the cleaved PLV relative to Arf1p (arbitrary units) [4] was 15.

B4: Nub-Sec62p (natural protein)
chain: MSAVGPGSNAGASVNGGSATAIATLLRNHKELKQRQGLFQAKQTDFFRYKRFVRALHSEEYANKSARQPEIYPTIPSNKIEDQLKSREIFIQLIKAQMVIPVKKLHSQECKEHGLKPSKDFPHLIVSNKAQLEADEYFVWNYNPRTYMDYLIVIGVVSIILALVCYPLWPRSMRRGSYYVSLGAFGILAGFFAVAILRLILYVLSLIVYKDVGGFWIFPNLFEDCGVLESFKPLYGFGEKDTYSYKKKLKRMKKKQAKRESNKKKAINEKAEQN
For B4, the cleaved PLV relative to Arf1p (arbitrary units) [4] was 6.6.

Reference: publication PMC3618304
